What was measured:
[1] = target: the molecule itself; assay: crystal structure; MotA^linker/CTD mixed with 22 bp MotA box DNA at 1.15:1 DNA:protein; 23% PEG 8000, 0.12 M sodium acetate, 0.1 M sodium cacodylate pH 6.5, 3% glycerol; space group P6_(1), 2.96 Å; four protein copies and two DNA duplexes in the asymmetric unit
MotA [2] = target: T1, MotA (Enterobacteria phage T4, UniProt P22915 1-211); assay: competition; EMSA vs labeled N6; EMSA: 0.01 pmol 32P-DNA, 1.7 pmol MotA, native 12% PAGE in 1x TBE at 4 C, other conditions as in ref 14; SPR: biotin-DNA on neutravidin chip, buffer as in ref 2
T1 sequence: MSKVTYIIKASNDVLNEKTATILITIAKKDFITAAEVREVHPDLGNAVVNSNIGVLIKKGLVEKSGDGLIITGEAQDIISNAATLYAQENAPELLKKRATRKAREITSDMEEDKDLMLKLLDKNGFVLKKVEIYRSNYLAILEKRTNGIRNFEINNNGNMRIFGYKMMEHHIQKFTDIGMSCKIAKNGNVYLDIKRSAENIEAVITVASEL

MotA [3] = target: T1, MotA; assay: EMSA; EMSA: 0.01 pmol 32P-DNA, 1.7 pmol MotA, native 12% PAGE in 1x TBE at 4 C, other conditions as in ref 14; SPR: biotin-DNA on neutravidin chip, buffer as in ref 2
MotA [4] = target: T1, MotA; assay: EMSA; steep curve, value uncertain; EMSA: 0.01 pmol 32P-DNA, 1.7 pmol MotA, native 12% PAGE in 1x TBE at 4 C, other conditions as in ref 14; SPR: biotin-DNA on neutravidin chip, buffer as in ref 2
MotAlinker/CTD = target: T2, MotAlinker/CTD (Enterobacteria phage T4, UniProt P22915 93-211); assay: X-ray crystallography; cognate complexes A and C; further non-cognate copies B and D on the opposite face; 2.96 A; EMSA: 0.01 pmol 32P-DNA, 1.7 pmol MotA, native 12% PAGE in 1x TBE at 4 C, other conditions as in ref 14; SPR: biotin-DNA on neutravidin chip, buffer as in ref 2
T2 sequence: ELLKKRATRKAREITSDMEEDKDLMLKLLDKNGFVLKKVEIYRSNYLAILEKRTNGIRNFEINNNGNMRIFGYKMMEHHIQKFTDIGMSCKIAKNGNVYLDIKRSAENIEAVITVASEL

B1: MotA^linker/CTD (C-terminal domain and linker region of MotA, amino acids 93-211) (domain or fragment, bacteriophage T4, UniProt P22915 93-211, looked up)
chain: T2 sequence
B1: binds [1].

B2: EMSA mutant competitor (dsDNA)
DNA 1: AATTATTATACTTAGATTA
DNA 2: TAATCTAAGTATAATAATT
B2: no binding (MotA [2]).

B3: EMSA 19-mer unmodified (dsDNA)
DNA 1: AATTATTTGCTTTAGATTA
DNA 2: TAATCTAAAGCAAATAATT
B3 showed a Kd (MotA [3]) of roughly 140 nM.

B4: EMSA 19-mer GHMe/unmod (dsDNA)
DNA 1: AATTATTTGCTTTAGATTA
DNA 2: TAATCTAAAGCAAATAATT
modifications: beta-D-glucosyl-5-hydroxymethyl-dC at top C10
B4 gave a Kd (MotA [4]) of roughly 20 nM.

B5: 22-mer MotA box DNA (crystal) (dsDNA)
DNA 1: GAAGCTTTGCTTAATAATCCAC
DNA 2: GTGGATTATTAAGCAAAGCTTC
B5: binds (MotAlinker/CTD).

Reference: paper PMC6007404 (Nucleic Acids Research, 2018)
